The record followed here is US20210061922A1 (CITY OF HOPE, published 2021).

The target of the assay is T1, CD16a (UniProt P08637 17-208, limits assumed).
T1 construct: also called Fc receptor CD16
The experiment in a line: surface plasmon resonance traces (FIG. 10D).

T1 sequence (P08637 17-208 limits assumed): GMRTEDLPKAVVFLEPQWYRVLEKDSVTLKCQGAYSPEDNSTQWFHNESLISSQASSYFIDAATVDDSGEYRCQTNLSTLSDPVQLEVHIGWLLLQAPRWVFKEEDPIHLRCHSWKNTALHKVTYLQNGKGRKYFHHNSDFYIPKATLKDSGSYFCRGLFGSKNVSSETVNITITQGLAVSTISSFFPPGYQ

B1: Anti-CD16 nanobody (VHH)
VHH: EVQLTESGGEDVQAGGSLRLSCSASGLTFSSYNMGWFRRAPGKEREFVASITWSGRDTFYADSVKGRFTISRDNAKNTVYLQMSSLKPEDTATYYCAANPWPVAAPRSGTYWGEGTQVTV
notes: also called αCD16; anti-CD16 single domain antibody
With B1, the binding result is given as “binds”.
